Consider two substances from US20220127365A1.

The target of test [1] is human CD94 (human) (UniProt Q13241). Nature of the test: HLA-E tetramer blocking on healthy-donor PBMC NK cells, flow cytometry; competitor HLA-E tetramer.
Test [2] has the same target. Nature of the test: competition assay, flow cytometry on NK cells of healthy donor PBMCs; labeled HP-3B1 titrated, concurrently Human IgG1 control. A general note: In flow cytometry, cells or beads pass a laser one at a time.
The target is the same in test [3]. Nature of the test: competition assay, flow cytometry on CD3-CD56+ NK cells of healthy donor PBMCs; labeled HP-3B1 titrated in the presence of 1E4 at 11 µg/ml.
The target is the same in test [4]. Briefly: competition assay, flow cytometry on CD3-CD56+ NK cells of healthy donor PBMCs; labeled HP-3B1 titrated, concurrently Human IgG1 control (or 18H3 at 1.3 µg/ml).
Test [5] has the same target. Nature of the test: table column 'Affinity on human NK cells'; flow cytometry titration on human primary NK cells (the filing gives these affinities as EC50 of the titration curve).
Test [6] shares this target. Briefly: table column 'HLA-E blocking'; flow cytometry on NK cells of healthy donor PBMCs, antibody at saturating concentration, blocked ligand PE labeled HLA-E tetramer; percent blocking = 100-((percent HLA-E positive with antibody)/(percent HLA-E positive with isotype)*100).

Some results are limits rather than exact numbers.

Chain of human CD94 (human) (Q13241 whole entry): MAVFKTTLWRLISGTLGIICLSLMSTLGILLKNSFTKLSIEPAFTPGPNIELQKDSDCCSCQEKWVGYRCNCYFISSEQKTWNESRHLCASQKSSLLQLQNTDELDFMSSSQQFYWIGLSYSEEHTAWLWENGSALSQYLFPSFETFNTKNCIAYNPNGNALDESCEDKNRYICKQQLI

For orientation: EC50 (read off the curve) means the concentration at which the effect is half-maximal. Substance anti-CD94 antibody clone HP-3B1 registered a percent HLA-E blocking in test [1] above 40%. The EC50 (read off the curve) worked out at 3 nM in test [2], 2 nM in test [3] and 3 nM in test [4]. In test [5], this substance returned an Affinity on human NK cells of 3 nM. Besides, the HLA-E blocking in test [6] came to 99.8%.
Regarding anti-CD94 antibody clone DX22, the percent HLA-E blocking in test [1] is above 40%. This substance came in with an Affinity on human NK cells in test [5] of 0.15 nM. This substance also showed an HLA-E blocking in test [6] of 99%.
